The DeepSol protein solubility set

Test: soluble on expression in E. coli; label from the status in PepcDB or PDB records

Row | Sequence | soluble on expression in E. coli
1 | MGSDKIHHHHHHMKEIPGLVKKAQIDKHDLTWLEESEVDDRVQQRRYGTTQAAELAGISVGLLYAAEQDGRLPEPEYRSDTARKVRAGYTINHINHMQRVFNTAPRKPEGSSAAIAGILNLKGGSQKTTTCHLFSQYLAIRGYRCLLLDTDPQGSLSFYFGKRPDDNVHYENTVAPFFLEDDEALVEAGHPEGASRSLHYAIQKTYWDNIDIIPACLQNLNIDLLMPSVMNEANVPMLDRIMKLRNGLLEVGENYDFIIIDGTPSLNLSTLNVVSACDVCFVPTPAAMLDFASTLQFAGLVAETAEMYKQEKMYPNIPDMRYFITKYSGSSYAHFMGQIIRRVFTVERGDVLSTEAHASDEIGKANTSTYSIYEKNPAESDNRKRLKKTIEMFDRLFEEMHDAVWETCFEDALRSSHLDKIDEIMSSADLARDDLKRANRLSDKEA | not soluble
2 | MNTLIPISEQTVGQETVQTVNARDLHAFLEVKTSFKDWIIRRIQDCKFKEGYDFCSFLSESSGGRPSKEYHITLDMAKHLSMIERNDKGHEARQYFNFLFDNMSVLCLLSNQVPQKHLKYTAGRLPKQSLLRTLKALTHYMLVAYKWLVGCGYAIQYPRGESVTTDCVPCF | soluble
3 | EFSLSTLLEMTVGLASGANNEERFHRLLDAVRKAVICDCVVLMSLHNDTLTPLAMQGLTRDTLGRRFVVSEHPRLAQICSADLPVRFAADCPLPDPFDGLLLDSEDDLPMHSCMGLPLHFGEQLLGILTLDSLKPDAFDHLSPRSLEILAAIAAATLKMTLTFSELENQAKQTQLRLEELNQEAWSRDSVE | not soluble
4 | MSLSKNVTYEGIYVENINVSNLNEKDLKEKLNEHYSDLLNNFKITFNYKDNFNETFSAKDLGFFFDINDLSNQVFSFGKNSNIFSNTIERLKLKSNPKYFQFKPESNSEVLSEKLSEISNKINKEKVEPTISFSNDSISATKEQIGYKLDLEKLTSEIVNDLNNSHDSLNCTINIPVEEIKPKLTQETVNNMVILGSYTTKLPSLTGGRTKNISNYLSKLNGTILMPGDIFSADKEGEDRTESNGYTYAPGYIGNKVVDILAGGICQGVTTLYNSVLYADLKIVERAPHSLPVTYAPIGRDATMASGVIDFKFQNNMNNPVIVQTYITSSGQVKSNIWGIKEDPGKEIVISVDQHGPKSSTTYKETYENGVLVKKEVLSKDKYNEGHHHHHH | soluble
5 | MGHHHHHHSHMGFYLGITALKSIGNNKNNNIDNENNHQAKILTFPVSFTCRTFLPARGDILQGTVKKVLWNGAFIRSGPLRYAYLSLLKMPHYHYVHSPLSEDEKPHFQKDDLSKIAVGVVVRFQVLAVRFKERPHKRRNDYYVLATLEGNGSFGP | soluble
6 | MSLSRLILIESNKNTRGTPWISIPVRNGVFEYDFYTDHEKAYELICWDDLLNGCWYPVTFFAENGTVSFTISAIDARPPYRIETLNSLTTALRLFEAEGKDKFSFDELNARRDTLEKYGRFESEAMQALWKKFDQVKDNPEERNKLFRERDRLEESGEAFTKEAKALIKEREQLFRKKVIWETEQASQHPSLVGLFILKMKVENARKDEDVTPYLEAFQKVYASRYPEHPYTREMQMFIDNNQPKTGNRFIDFSAPDLNGNMVQLSEQIRGKVALIDLWASWCGPCRTTSKQLIPIYEKYKDRGFTVIGVAREQNSDIRMREAIRKDGYPWLNLIELNDVQQIWSKYRIPNAAGGTFLVNAQGIILAVNPTAEEVERILQKELEGHHHHHH | not soluble
7 | ETPAVQVSTNRQAIIINEQTQFKVDAALKNAGIQTDGMFVVDNSLKVRFKDTETQLKARDVIENTLGEGYITALNLLADSPEWMAKIKANPMFLGLDLRGGVHFTMQVDMKAAMQKTFERYSGDIRRELRREKIRSGTVRQAGNSLTVPLQDAGDVQKALPQLRKLFPEATLNSDGSNIVLTLSEEAVNKVCSDAVKQNITTLHNRVNELGVAEPVIQQSGADRIVVQLPGVQDTAKAKDIIGRTATLELRMVEDDPAKLREALEGNVPSGYELLSSGGDRPEILLISKQVELTGDNINDAQPSFDQMGAPAVSLSLDSAGGSIFGELTAANVGKRMAMVLIDQGKSEVVTAPVIRTAITGGRVEISGSMTTAEANDTSLLLRAGSLAAPMQIVEERTIGPSLGKENIEK | not soluble
8 | MGSDKIHHHHHHMSEKLWEKGYKVNEEVEKFTVGDDYITDMKIIEYDIKASIVHSRMLHKIGLLSAEEQKKIEEALSELLNLVKEGKFQIKPEEEDCHTAIENFLVKKLGEIGKKIHTARSRNDQVLTALRLMYKEELKEIENLIRELQKSLERFIEKFGDVKFPGYTHTRKAMPTDFATWAGALKDALEDDLKLLKTAYEIVDQSPLGTGAGYGVPIDIDREFTAKELGFSKVQWNPIYTQNSRGKFEYLILHTLSQISYDLNRFASDIIFFSLPEIGYLKLPKELCTGSSIMPHKINPDPLELVRAHHHTIVSKMLMAVTLPSNLIFGYHRDFQLLKKPVIEAFEVVKNIVRIMKIIFDHLEVDKERSESSITEEVLATHRVYELVKQGVPFRDAYRMVAEKYGREKD | not soluble
9 | MKFAVIGNPISHSLSPLMHHANFQSLNLENTYEAINVPVNQFQDIKKIISEKSIDGFNVTIPHKERIIPYLDDINEQAKSVGAVNTVLVKDGKWIGYNTDGIGYVNGLKQIYEGIEDAYILILGAGGASKGIANELYKIVRPTLTVANRTMSRFNNWSLNINKINLSHAESHLDEFDIIINTTPAGMNGNTDSVISLNRLASHTLVSDIVYNPYKTPILIEAEQRGNPIYNGLDMFVHQGAESFKIWTNLEPDIKAMKNIVIQKLKGELLEHHHHHH | soluble
10 | MNPIEIIDKFYPQDTEQRHILLIHSLSVAQKALKIVDAHPNLPINRSFVREAALLHDIGIFMTDAPTIQCFGEHPYIAHGYLGADLLRKEGFERHALVCERHTGAGLTLEEIIERQLPVPHREMVPVTLEEQIICFADKFFSKTHLDEEKTVEKARKSIAKYGEEGLNRFDGWCSLFL | not soluble
11 | SDNISLEYFEEAVCYMLQHPQVKGPGIGLLGISLGADICLSMASFLKNVSATVSINGSGISGNTAINYKHSSIPPLGYDLRRIKVAFSGLVDIVDIRNALVGGYKNPSMIPIEKAQGPILLIVGQDDHNWRSELYAQTVSERLQAHGKEKPQIICYPGTGHYIEPPYFPLCPASLHRLLNKHVIWGGEPRAHSKAQEDAWKQILAFFCKHLGGTQKTAVPKL | soluble
12 | EAEEDGDLQCLCVKTTSQVRPRHITSLEVIKAGPHCPTAQLIATLKNGRKICLDLQAPLYKKIIKKLLES | soluble
13 | MLEVKELVKTFGDFKAVDHVSFTIPDGKILGLIGQNGAGKTTTFRLILNFLTQDSGSVLWNGQPLNEKEYNIIGYLPEERGLYPKITIEDQLIYFASLRGKTKKEIEPKIDFWMEKFQVKGKKTDKVKSLSKGNQQKVQLIATLIHEPKLIILDEPFSGLDPVNAELLKDGIIELKNQGSCVIFSSHNMDNVEKICDHLVMLKNGRMVLDGQVHEIRQQFGRTKLFLESPLSVEEVAATAGVKEAHLRQDGVLEATLENAEVGKVLFDKATANGYIPMFNQQPPTLEEIFKMKVGGQDE | not soluble
14 | MSEVDKAHLAAINKDVQANDTLFGKIIRKEIPAKIIFEDDEALAFHDVSPQAPIHFLVIPKRRIDMLENAVDSDAALIGKLMVTASKVAKQLGMANGYRVVVNNGKDGAQSVFHLHLHVLGGRQLQWPPG | not soluble
15 | MGYLNNVTGYREDLLANRAIVKHGNFALLTPDGLVKNIIPGFENCDATILSTPKLGASFVDYLVTLHQNGGNQQGFGGEGIETFLYVISGNITAKAEGKTFALSEGGYLYCPPGSLMTFVNAQAEDSQIFLYKRRYVPVEGYAPWLVSGNASELERIHYEGMDDVILLDFLPKELGFDMNMHILSFAPGASHGYIETHVQEHGAYILSGQGVYNLDNNWIPVKKGDYIFMGAYSLQAGYGVGRGEAFSYIYSKDCNRDVEILEHHHHHH | not soluble
16 | MQQKLENIKFVITDVDGVLTDGQLHYDANGEAIKSFHVRDGLGIKMLMDADIQVAVLSGRDSPILRRRIADLGIKLFFLGKLEKETACFDLMKQAGVTAEQTAYIGDDSVDLPAFAACGTSFAVADAPIYVKNAVDHVLSTHGGKGAFREMSDMILQAQGKSSVFDTAQGFLKSVKSMGQLEHHHHHH | soluble
17 | MGSDKIHHHHHHMNFIKEKHIEIVLNQTCLNPKLSVFLPVIKKTGVQLISVFHSQPYGMYGIKAFPKICNVFGVDKVGNLVDVLIHFAFKLKYGRYLKRMLQYSDKLVMLSDKFINEFLYFSGKKYAEKMLSISNPVTINGGGSEKKEKIVLFVGRISQEKGVDKILEVWRGICHEEKYKEWRLVIVGDGEKRKQMEKYAMDMELINYSFEGFQKPDGYYDKAKIFCMASAFEGFGLVLVEAMSYGVVPMAFNSFSNCSDIIDDDKNGILVTPFSINEYRKKIIELIENDEKWMKMSTCSINKSKEYSIECIGAKWLDLFYSLLNNKVT | not soluble
18 | MQSTVAFISHRSTHKDFVRKIVDTVKRDNCIVDEFDFYPATKTVNEIVRNLNFAPIFVLLISKDALESDWIKLEMSKARQLYDTGVIREFMPFIIEEGVKLEELPSWMTRDWSLNIKTITSPKIIGQFIIETQRKIRCVGNNAYGNWINTFIGRSNELDEFQRAMYDSVYMPHRSLIVSGKPGSGRTRFIQKCIQDSSGLSFIPEGFQIKLPQKTYLDNFILQLHEGLGFSKASYEDILKLDHEHQITKCVSYINQIINAHSFLLIEDEMSFVSYDGTISEWGKEIISHPAMIDSLKIFISSRVKPRYSELRAYPQIIHINLSGFTKDERKRLFVNCCRYYNVQLNDSDVDFFVDRLQSSPQQLEQAVREIKDKNVRFAKKDIKNLIAIGDEVFSRVISWFKGDETALTLAKVLAEVDMISFDLLEQLYEEDYPKIEQLVNNFESLSILDFYGPGGNNISLDGGVSDYIRRSKLDLDPIMKTRIEEIIFNKIDTAEDDLGELSIFLHDLRKQLLSGKGFAYVMPSIVISTVIDLYNQGSYDSVKDICLHALEHCSSYTEEPLQELYYRLCQVLARMKDRIFFTYIDKIKDKGSKDFLYGFYYRYKEDYSKAEEYLLKALDFNSNMQIARRELVNVYLNQEKYTKALPLAKENYNRKSTNSYHIEAYFRCLLNHYPWNTETEDTLNRLLKEMEENFSKRKDELLASMQLEYFIKSRNHTKEEIKEKIQETLIVYPNSPQVYRIKEEFERDKSRFCKSCNC | not soluble
19 | MGSDKIHHHHHHMKFCIIGYPVRHSISPRLYNEYFKRAGMNHSYGMEEIPPESFDTEIRRILEEYDGFNATIPHKERVMRYVEPSEDAQRIKAVNCVFRGKGYNTDWVGVVKSLEGVEVKEPVVVVGAGGAARAVIYALLQMGVKDIWVVNRTIERAKALDFPVKIFSLDQLDEVVKKAKSLFNTTSVGMKGEELPVSDDSLKNLSLVYDVIYFDTPLVVKARKLGVKHIIKGNLMFYYQAMENLKIWGIYDEEVFKEVFGEVLK | not soluble
20 | MSLRTLYSGGLVFDGIGNLLEQHGVLVDGQKICRIAPLGEFEGFSDEKVDTSDGTLLPGLIDCHVHIVYSGEADPKSHLLKLRPGQIVINALENAKKTLSNGITSIRDLGGRDFLEFAVRDACNSGRQTGPTIRAAGRMICMTGGHGNAFGRVADGPDEVLKAVREQIHAGSDVIKLMATGGVMTPGVNPEDAHYSEEELRVGVNEGHRFNRKCASHAQGSAGILNAVNAGMDSIEHGIFMTQESLESMLKHQTYLVPTLSAVNNIYLNRDNGIPEFIVEKTLRIRERHHQSIKMFYKAGGKMAMGTDAGTPFNLHGENTNELQYMVDLGVSNLDVLKISTVNAADLMDLEDRGIIQEGFYADFLIVNGDPVKDISKVADRKNHRIVVKNGVHINEGHHHHHH | soluble
